The results in this text go back to the supplement of paper PMC12455559.

± gives the standard deviation of the averaged measurements. Bounds are passed on as bounds.

Data set [1] can be described thus: PET hydrolysis, aromatic products released after 48 h (umol product/mg enzyme); higher = more PET depolymerization activity. The method in brief: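 Sealed plates containing 3.5 mg PET (amorphous film or crystalline powder), 450 μL buffer and 5 μg (50 μL) tagless candidate enzyme were held 48 h at 40 or 60 °C with no shaking. Supernatants were then read at 260 and 280 nm against buffer blanks. The aromatic product detected this way, per mg enzyme, defines PET hydrolysis activity.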

The nature of data set [2]: purified protein yield per well (BCA); higher = higher soluble expression. The gist of the method:
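Candidate enzymes were made in 2 mL autoinduction cultures of E. coli C41(DE3) with 100 µg/mL kanamycin, at 37 °C for 2 h and then 18 °C for 40 h, and purified with Ni-charged magnetic beads and SUMO protease cleavage. The Pierce Rapid Gold BCA kit gave purified protein yield per well. Values lower than 25 ug (0.1 mg/mL) are below the detection threshold.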

A short description of data set [3]: melting temperature (DSF); higher = more thermostable. The gist of the method:
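On a Bio-Rad CFX96, fluorescence of 45 μL enzyme (0 to 0.3 mg/mL) mixed with 5 μL 5X Sypro Orange in sealed PCR plates was followed from 25 °C through 250 cycles of 0.3 °C, with a 0.3 °C/s ramp. The enzymes had been expressed in E. coli C41(DE3), taken up on nickel beads and released by SUMO protease. Melting temperature, measured by differential scanning fluorimetry, is the value given.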

The mark [4] stands for this setting: substrate: cryPow, 40 °C, pH 4.5.
Where [5] appears, read: substrate: cryPow, 40 °C, pH 5.5.
Setting [6] is: substrate: cryPow, 40 °C, pH 6.5.
Where [7] appears, read: substrate: cryPow, 40 °C, pH 7.5.
The mark [8] stands for this setting: substrate: cryPow, 60 °C, pH 4.5.
The mark [9] stands for this setting: substrate: cryPow, 60 °C, pH 5.5.
Where [10] appears, read: substrate: cryPow, 60 °C, pH 6.5.
Setting [11] is: substrate: cryPow, 60 °C, pH 7.5.
Where [12] appears, read: substrate: cryPow, 40 °C, pH 8.5.

For the sequence “VEIGPNPTSTLLNGNGPFSVSSSSVSSWVSGFGGGTIYYPTASGQYGVIAVCPGYTGTSSSISWFARRLATHGFVTIAMNTNSRFDFPDSRATQLAAALNYLLNSSSSTIRSRIRTADRGVAGHSMGGGGTLRASERDSNLKVGIPLTPWHTDKTWGSLSVPQMIFGADGDTVAPASSHARTFYNSIPSSTKKAYALLNNASHFTPNSTDERIGRYGVAFAKRFVDGDTRYEPFLCGAEHSTYATSWKFDTYLSTCPYGGGSEPEPDYPWWYWWR [ESM162]”, the PET hydrolysis in data set [1] (setting [4]), in data set [1] (setting [5]), in data set [1] (setting [6]) and in data set [1] (setting [7]) was less than 3 throughout. For the same sequence, the “purified protein yield per well” value in data set [2] amounted to 31.8 µg. In data set [3], this sequence yielded a melting temperature of 69.7 C.

For the sequence “AANPYERGPAPTAASIAATTGPFAVASVSVPRGNGFGGGVIYYPTSTSQGTFGGVAISPGLNGTWAGIAWLGPRLASQGFVIFGIETNNLNDSPASRGTQLLAALDFLTRSSSVRTRVDASRLAVAGHSMGGGGALSAALQRPSLQAAIGNAPHLPSGSLATDRVPTLIYAMQNDTLVTPSRLTSLYNSMPATTERAYIEVAGAGHNYIGQPSTTLARTMIPWLKIFVDNDARYSQFLCPLSNQSGISQYRNSCPLISTTTLSTGVDSTSGLAVR [ESM157]”, the PET hydrolysis in data set [1] (substrate: aFilm, 40 °C, pH 4.5) was less than 3; in data set [1] (substrate: aFilm, 40 °C, pH 5.5), less than 3; in data set [1] (substrate: aFilm, 40 °C, pH 6.5), less than 3; in data set [1] (substrate: aFilm, 40 °C, pH 7.5) it was less than 3; in data set [1] (substrate: aFilm, 60 °C, pH 4.5), less than 3; in data set [1] (substrate: aFilm, 60 °C, pH 5.5), less than 3. Besides, the PET hydrolysis in data set [1] (substrate: aFilm, 60 °C, pH 6.5) is less than 3; in data set [1] (substrate: aFilm, 60 °C, pH 7.5), less than 3; in data set [1] (setting [4]), less than 3; in data set [1] (setting [5]), 17.5 ± 2.1; in data set [1] (setting [6]), 50; in data set [1] (setting [7]), 69.5 ± 3.5. Further, the PET hydrolysis was less than 3 in data set [1] (setting [8]), 3 in data set [1] (setting [9]), 7.5 ± 0.71 in data set [1] (setting [10]) and 14.5 ± 0.71 in data set [1] (setting [11]). In addition, the “purified protein yield per well” value in data set [2] amounted to 313 µg. Moreover, the melting temperature in data set [3] came out at 61 C.

For the sequence “FSAPGPSAPCSNCTRGPAPTVASLKASSGPFSTAKFSVSGYLKGFGNSTVYYPTNTSGKMGAIAVIPGYLSYESSIEWWGPRLASHGFVVMTMNTNSIYDQPDSRATQLSKALDYLISQSGSSSSPIYGKVDSSRLGAIGWSMGGGGSLKLSTQRSINAIIPQAPWYLGSNTFNTIKTPALILACSADTVAPVYQHASPFYNRIPTSTPKAFLEIYGGSHFCANSGYPNEDLLGMYGIAWMKRFIDFDSRYSQFLCGPNHESDYAISEYRQNCPY [ESM017]”, the PET hydrolysis in data set [1] (setting [4]) was less than 3; in data set [1] (setting [5]) it was less than 3; in data set [1] (setting [6]), 11; in data set [1] (setting [7]), 33. Moreover, the “purified protein yield per well” value in data set [2] worked out at 53.8 µg. The same sequence gave a melting temperature in data set [3] of 56.5 C.

In the case of “DDGYQRGPDPTEESIEAPRGTFEIGMAVVTRASADGFGGGTVYYPTDTSEGTFGAVAVSPGYSSSQAAIAWLGPRLASQGFVVFTIDTLSTSDSPTRRGDQVLAALSFLGRTELADRIDPDRLAVMGHSMGGGGSLEAAKDYPALQAIVPMTPWSVDKTFPEVTAPTLVIGAEDDVVARPRSHAEPIYESLPADGDKAYLELRDASHSAPSAPNTLIARYSLSWLKRYVDDDERYQQFLCPPPAVDDEISEYRSTCA [DP089]”, the PET hydrolysis in data set [1] (setting [5]) is less than 3; in data set [1] (setting [6]) it was 4; in data set [1] (setting [7]), 19; in data set [1] (setting [12]) it was 20. Also, in data set [2], the “purified protein yield per well” value is less than 25 µg. In data set [3], this sequence registered a melting temperature of 52 C.

Consider “ADNPYQRGPAPTAASIAADRGPFATAQVTVPRGNGFGGGVIYYPTDTSQGTFGAIAIAPGFGTAWSYYAWQGPRLASFGFVVIGIETNTLNDYADARAAQLLAALDYLVNSSSVRDRVDRNRLAVGGHSMGGGGAILAANQRPSLLTAVGQAPYVPDGSLSGIKSPTIIFAGQADGTVTPQYAQNAYNTIPGSVERAYVEIANEGHGFPAGGGGGNSGAFARTMMVWLKLFVDKDTRYAPFLCPSLTNANGISKYMASCPLDPPGGGPTASPTSTPTSTPTSTPTSTPTGTPPAGGTSALRGVASGRCLDVNGASQANGATVLIWDCNGQNNQKWTSTSAGELRVYGNKCLDVNGGGTADGSAVIIWDCNGQSNQKWRLNSDGSITAVGANKCLDVSGNGTANGTRVQIWSCTGGTNQKWTRV [ESM010]”, for which the PET hydrolysis was less than 3 in data set [1] (setting [4]); 3 in data set [1] (setting [5]); 4 in data set [1] (setting [6]); 5 in data set [1] (setting [7]); less than 3 in data set [1] (setting [8]); less than 3 in data set [1] (setting [9]). The PET hydrolysis in data set [1] (setting [10]) and in data set [1] (setting [11]) was less than 3 in each case. Besides, in data set [2], the “purified protein yield per well” value turned out to be 79.7 µg. In data set [3], this sequence gave a melting temperature of 64.6 C.

On to “QSPSAAANPYERGPDPTVSSVAAQRGTFATAEVTVPPGNGFNGGKIYYPTDTSLGTWGAVAAVPGYTARWSAEGAWMGPWLASFGFVVIGIDTNSPNDFDTARGTQLLAALDYLTQKSPVRDRVDPSRLGVIGHSMGGGGAISAAERRPSLKAALPLAPFSPSQNLSSLRVPTMIMGARDDGTVTPSYLDGLYGGMPATTQSAYIELTGGGHGFPTWGNSNVTRRTIPWLKIFLDNDTRYTQFLCPSPADRTGVSRSQTKCPYVPPGTTTPPPSGGQIVGAGSGRCLDVPNASQTNGTQLQLWDCSANANQKWARTGTGELRVYGNKCLDAEGAGTSPGTRVIIWDCHGGQNQRWNVNTSGTITRADPVCAWTRKATAPGTAPRRSWGTAMAGPASAGPSGSED [TEP122]”, for which the PET hydrolysis in data set [1] (setting [4]), in data set [1] (setting [5]), in data set [1] (setting [6]), in data set [1] (setting [7]), in data set [1] (setting [8]) and in data set [1] (setting [9]) was less than 3 throughout. Moreover, the PET hydrolysis in data set [1] (setting [10]) and in data set [1] (setting [11]) was less than 3 throughout. Moreover, the “purified protein yield per well” value in data set [2] amounted to 186 µg. The melting temperature in data set [3] is 54.1 C.

With “ASPYERGPNPTTAILEASSGPYSVSSVSVSSLVTGFGGGRIYYPTTTADGTFGGIAISPGFTARWSSLEWLGPRIASHGFVVIGIETNSIYDQPTSRGQQLLAALDYLVNSSSARTRVDRNRLAVAGHSMGGGGTLYAANARPSLQAAVPIAPWNTDKTWGGVQVPTMIIGGESDSVAPVATHAIPFYTSIPASSEKAYLELNNASHFFPQTVNTTMAKSMVSWLKRYVDDDTRYDPWLCPAPSGLSISDYRDTCPA [DP084]”, the PET hydrolysis was less than 3 in data set [1] (setting [5]); 3 in data set [1] (setting [6]); 9 in data set [1] (setting [7]); 11 in data set [1] (setting [12]); less than 3 in data set [1] (setting [9]); less than 3 in data set [1] (setting [10]). Besides, the PET hydrolysis in data set [1] (setting [11]) was less than 3; in data set [1] (substrate: cryPow, 60 °C, pH 8.5), less than 3. Further, in data set [2], the “purified protein yield per well” value amounted to 91 µg. This sequence registered a melting temperature in data set [3] of 48.7 C.
